For one substance, stoichiometry N results are on record in paper doi:10.1101/2023.08.08.552318.

In this experiment the target is Hemiselmis andersenii phycobiliprotein α subunit Haα^OB1 (open-braced form) (Hemiselmis andersenii). In words: crystal structure.

The substance “Hemiselmis andersenii phycobiliprotein α subunit Haα^OB1 (open-braced form) (natural protein)” yielded a stoichiometry N of 2.
